# T1: tau peptide, residues 24-44 of SEQ ID NO: 1 (human)
# T1 construct: Tryptic fragment of rTau, precipitated by 16B5 and identified by MALDI-TOF/TOF
# T1 peptide: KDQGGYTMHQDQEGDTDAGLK
# T2: tau peptide, residues 25-44 of SEQ ID NO: 1 (human)
# T2 construct: Proteolytic fragment (LysC and trypsin digests) of rTau, precipitated by 16B5 and identified by MALDI-TOF/TOF
# T2 peptide: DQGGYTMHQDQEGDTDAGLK
# Legend:
# [1] = biological target: recombinant purified hTau-P301L (human) (UniProt P10636); test: SPR (Biacore T200), antibody held by a capture antibody on a CM5 chip, hTau-P301L as analyte
# recombinant purified hTau-P301L (human), sequence (P10636 other isoform, or with tags, fused parts or gaps P301L P301L): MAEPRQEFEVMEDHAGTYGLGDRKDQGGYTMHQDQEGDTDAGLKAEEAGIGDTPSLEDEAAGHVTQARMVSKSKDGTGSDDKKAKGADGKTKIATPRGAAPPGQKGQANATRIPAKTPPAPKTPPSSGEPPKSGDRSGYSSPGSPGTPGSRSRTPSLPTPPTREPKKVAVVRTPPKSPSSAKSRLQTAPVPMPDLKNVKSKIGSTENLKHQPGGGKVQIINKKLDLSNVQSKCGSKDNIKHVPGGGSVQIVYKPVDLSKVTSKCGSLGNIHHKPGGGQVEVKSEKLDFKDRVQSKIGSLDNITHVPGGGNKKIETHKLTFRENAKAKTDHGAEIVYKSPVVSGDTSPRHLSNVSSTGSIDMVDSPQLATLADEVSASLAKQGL
# [2] = biological target: T1, tau peptide, residues 24-44 of SEQ ID …; test: precipitation of protease fragments of rTau with 16B5, HPLC, MALDI-TOF/TOF
# [3] = biological target: T2, tau peptide, residues 25-44 of SEQ ID …; test: as above
# [4] = biological target: T3, tau deletion mutant Δ23-32 (printed A23-32) (human, UniProt P10636 1-758); test: Western blot of bacterial lysate, antibody at 0.2 µg/mL
# T3 construct: Deletion mutant of rTau, tested in clarified bacterial lysate; The limits of the pieces are derived from the printed deletion
# T3 sequence (P10636 other isoform, or with tags, fused parts or gaps mutant): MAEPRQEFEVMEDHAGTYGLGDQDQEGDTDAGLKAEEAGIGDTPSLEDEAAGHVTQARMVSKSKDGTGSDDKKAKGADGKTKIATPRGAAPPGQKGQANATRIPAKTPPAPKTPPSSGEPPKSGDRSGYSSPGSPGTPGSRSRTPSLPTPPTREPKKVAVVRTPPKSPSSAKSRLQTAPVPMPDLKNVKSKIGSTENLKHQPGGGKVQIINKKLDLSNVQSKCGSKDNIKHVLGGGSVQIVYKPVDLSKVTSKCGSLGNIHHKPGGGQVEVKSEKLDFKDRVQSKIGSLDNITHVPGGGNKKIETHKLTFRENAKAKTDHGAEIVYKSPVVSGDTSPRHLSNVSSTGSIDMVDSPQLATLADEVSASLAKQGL
# [5] = biological target: T4, tau deletion mutant Δ25-44 (printed A25-44) (human, UniProt P10636 1-758); test: Western blot of bacterial lysate
# T4 construct: Deletion mutant of rTau, tested in clarified bacterial lysate; The limits of the pieces are derived from the printed deletion
# T4 sequence (P10636 other isoform, or with tags, fused parts or gaps mutant): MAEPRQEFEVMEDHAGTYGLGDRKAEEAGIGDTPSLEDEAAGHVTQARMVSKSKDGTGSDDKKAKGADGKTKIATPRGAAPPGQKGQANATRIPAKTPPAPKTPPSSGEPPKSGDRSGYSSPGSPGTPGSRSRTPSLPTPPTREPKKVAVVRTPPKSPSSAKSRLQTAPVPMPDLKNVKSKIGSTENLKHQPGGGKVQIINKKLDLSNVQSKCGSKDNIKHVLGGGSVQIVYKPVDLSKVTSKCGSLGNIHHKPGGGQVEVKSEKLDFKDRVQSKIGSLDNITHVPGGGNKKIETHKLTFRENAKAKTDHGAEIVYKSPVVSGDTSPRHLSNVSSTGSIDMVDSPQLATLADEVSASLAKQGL
# [6] = biological target: T5, tau deletion mutant Δ30-39 (printed A30-39) (human, UniProt P10636 1-758); test: Western blot of bacterial lysate
# T5 construct: Deletion mutant of rTau, tested in clarified bacterial lysate; The limits of the pieces are derived from the printed deletion
# T5 sequence (P10636 other isoform, or with tags, fused parts or gaps mutant): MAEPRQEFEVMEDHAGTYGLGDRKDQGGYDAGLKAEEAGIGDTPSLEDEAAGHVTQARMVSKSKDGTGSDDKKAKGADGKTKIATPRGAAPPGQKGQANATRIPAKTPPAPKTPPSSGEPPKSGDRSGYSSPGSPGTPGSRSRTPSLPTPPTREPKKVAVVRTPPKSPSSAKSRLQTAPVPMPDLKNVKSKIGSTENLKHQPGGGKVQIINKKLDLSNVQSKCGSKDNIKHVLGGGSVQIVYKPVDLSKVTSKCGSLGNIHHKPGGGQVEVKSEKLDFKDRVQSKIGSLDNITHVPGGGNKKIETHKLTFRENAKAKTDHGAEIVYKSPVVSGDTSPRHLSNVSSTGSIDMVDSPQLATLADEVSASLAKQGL
# [7] = biological target: T6, rTau: human tau with 4 microtubule binding repeats and no N-terminal inserts, containing a P301L mutation (human, UniProt P10636 2-758); test: Western blot of bacterial lysate, 16B5 at 0.2 ug/mL
# T6 construct: Expressed in E. coli and purified; It is the parent of the deletion mutants; also called full-length Tau; wild-type Tau (WT) of the blots
# T6 sequence (P10636 other isoform, or with tags, fused parts or gaps P301L P301L limits assumed): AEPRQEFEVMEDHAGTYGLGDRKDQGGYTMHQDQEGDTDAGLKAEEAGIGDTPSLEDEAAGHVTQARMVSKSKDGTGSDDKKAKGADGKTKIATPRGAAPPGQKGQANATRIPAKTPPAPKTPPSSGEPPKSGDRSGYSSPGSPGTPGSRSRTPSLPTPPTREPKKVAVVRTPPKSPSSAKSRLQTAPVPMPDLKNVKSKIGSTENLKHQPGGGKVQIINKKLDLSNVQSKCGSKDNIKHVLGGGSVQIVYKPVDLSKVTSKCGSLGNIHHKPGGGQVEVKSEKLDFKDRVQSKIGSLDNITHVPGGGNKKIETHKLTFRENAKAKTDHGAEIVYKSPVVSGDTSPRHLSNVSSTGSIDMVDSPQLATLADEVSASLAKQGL
# [8] = biological target: T7, tau deletion mutant Δ5-24 (printed A5-24) (human, UniProt P10636-6 1-383); test: as above
# T7 construct: Deletion mutant of rTau, tested in clarified bacterial lysate; The limits of the pieces are derived from the printed deletion
# T7 sequence (P10636 other isoform, or with tags, fused parts or gaps mutant): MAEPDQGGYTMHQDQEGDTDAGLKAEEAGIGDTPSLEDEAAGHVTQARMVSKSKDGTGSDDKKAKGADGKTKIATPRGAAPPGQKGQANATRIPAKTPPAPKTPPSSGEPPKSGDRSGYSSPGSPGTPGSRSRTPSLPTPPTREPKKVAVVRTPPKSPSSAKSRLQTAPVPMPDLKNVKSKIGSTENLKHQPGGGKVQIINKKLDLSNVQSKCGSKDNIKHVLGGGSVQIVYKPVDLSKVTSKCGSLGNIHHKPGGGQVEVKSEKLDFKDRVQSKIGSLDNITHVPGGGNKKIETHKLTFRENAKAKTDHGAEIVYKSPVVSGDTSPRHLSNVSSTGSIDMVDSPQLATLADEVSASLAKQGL
Binder,Kd [1],koff [1],kon [1],further results
"16B5 monoclonal antibody (mouse) (antibody, V domains shown, Mouse monoclonal antibody; The control 6F10 is called an IgG1 isotype control; also called Murine 16B5; pan antibody 16B5) VH: QIQLVQSGPELKKPGETVKISCKASGYPFTYHGMDWVKQAPWGGLEWMGWINTYSGVPTYADDFKGRFAFSLETSVGTAYLQINNLKNEDTATYFCARRRDFTMDFWGQGTSVTVSS VL: NIVLSQSPSSLAVSPGEKVTMSCKSSQSLLNSRTRKNYLAWFQQKPGQSPKLLIYWASTRESGVPDRFTGSGSGTDFTLTISSVQAEDLAVYYCKQSYTLRTFGGGTNLEIKR",2.32 pM,–,–,binding result [2]: binds; binding result [3]: binds; binding result [4]: binds; binding result [5]: no binding (tested: 0.2 µg/mL antibody); binding result [6]: no binding (tested: 0.2 µg/mL antibody); binding result [7]: binds; binding result [8]: binds
"humanized 16B5, version H1L2 (antibody, V domains shown) VH: QVQLVQSGSELKKPGASVKVSCKASGYPFTYHGMDWVRQAPGQGLEWMGWINTYSGVPTYADDFKGRFVFSLDTSVSTAYLQISSLKAEDTAVYFCARRRDFTMDFWGQGTTVTVSS VL: NIVLTQSPDSLAVSLGERATINCKSSQSLLNSRTRKNYLAWFQQKPGQSPKLLIYWASTRESGVPDRFSGSGSGTDFTLTISSLQAEDVAVYYCKQSYTLRTFGGGTKVEIKR",2.94 pM,0.000131 s⁻¹,4.47e+07 M⁻¹ s⁻¹,–
"humanized 16B5, version H1L1 (antibody, V domains shown) VH: QVQLVQSGSELKKPGASVKVSCKASGYPFTYHGMDWVRQAPGQGLEWMGWINTYSGVPTYADDFKGRFVFSLDTSVSTAYLQISSLKAEDTAVYFCARRRDFTMDFWGQGTTVTVSS VL: NIVLTQSPDSLAVSLGERATINCKSSQSLLNSRTRKNYLAWFQQKPGQPPKLLIYWASTRESGVPDRFSGSGSGTDFTLTISSLQAEDVAVYYCKQSYTLRTFGGGTKVEIKR",–,–,–,dissociation constant relative to the chimeric antibody (fold of chimeric 16B5) [1]: 0.33
"humanized 16B5, version H1L4 (antibody, V domains shown) VH: QVQLVQSGSELKKPGASVKVSCKASGYPFTYHGMDWVRQAPGQGLEWMGWINTYSGVPTYADDFKGRFVFSLDTSVSTAYLQISSLKAEDTAVYFCARRRDFTMDFWGQGTTVTVSS VL: NIVLTQSPSSLAVSLGERATINCKSSQSLLNSRTRKNYLAWFQQKPGQSPKLLIYWASTRESGVPDRFSGSGSGTDFTLTISSLQAEDVAVYYCKQSYTLRTFGGGTKVEIKR",3.15 pM,0.000137 s⁻¹,4.36e+07 M⁻¹ s⁻¹,–

# Further lines, with some results ahead:
Kd [1],koff [1],kon [1],Binder,further results
2.86 pM,0.000138 s⁻¹,4.85e+07 M⁻¹ s⁻¹,"humanized 16B5, version H2L2 (antibody, V domains shown) VH: EVQLVQSGSELKKPGASVKVSCKASGYPFTYHGMDWVRQAPGQGLEWMGWINTYSGVPTYADDFKGRFVFSLDTSVSTAYLQISSLKAEDTAVYFCARRRDFTMDFWGQGTTVTVSS VL: NIVLTQSPDSLAVSLGERATINCKSSQSLLNSRTRKNYLAWFQQKPGQSPKLLIYWASTRESGVPDRFSGSGSGTDFTLTISSLQAEDVAVYYCKQSYTLRTFGGGTKVEIKR",–
3.95 pM,0.000171 s⁻¹,4.34e+07 M⁻¹ s⁻¹,"humanized 16B5, version H2L4 (antibody, V domains shown) VH: EVQLVQSGSELKKPGASVKVSCKASGYPFTYHGMDWVRQAPGQGLEWMGWINTYSGVPTYADDFKGRFVFSLDTSVSTAYLQISSLKAEDTAVYFCARRRDFTMDFWGQGTTVTVSS VL: NIVLTQSPSSLAVSLGERATINCKSSQSLLNSRTRKNYLAWFQQKPGQSPKLLIYWASTRESGVPDRFSGSGSGTDFTLTISSLQAEDVAVYYCKQSYTLRTFGGGTKVEIKR",–
